Measurements published in article PMC3439491.

Biological target: MA-MADS5 full length (A) (Musa acuminata (AAA group, Cavendish subgroup, cv. Giant governor)) (UniProt E9NW24)
Experiment: EMSA saturation
Conditions: EMSA with 2 ug recombinant protein or 15 ug nuclear extract, buffer by reference to earlier work; circularization pre-incubation: 60 mM KCl, 8 mM HEPES pH 7.9 …

MA-MADS5 full length (A) (Musa acuminata (AAA group, Cavendish subgroup, cv. Giant governor)), sequence (E9NW24 entry or part of it): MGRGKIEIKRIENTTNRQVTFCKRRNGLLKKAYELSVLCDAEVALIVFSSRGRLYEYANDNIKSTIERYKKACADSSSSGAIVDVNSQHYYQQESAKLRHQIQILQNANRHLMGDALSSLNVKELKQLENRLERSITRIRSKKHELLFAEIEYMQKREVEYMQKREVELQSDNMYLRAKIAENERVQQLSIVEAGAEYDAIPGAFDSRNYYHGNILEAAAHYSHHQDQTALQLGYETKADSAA

c-fos SRE, pAS76 EcoRV fragment
Kd: 10.6 nM
